US20190367619A1 (ARGENX, published 2019)

Assays:
[1] = target: T1, TEV-cleaved wild-type recombinant human galectin-10 (soluble, in Fab complexes, or as recombinant galectin-10 … (human, UniProt Q05315 1-142)); experiment: cell-based or functional assay
T1 sequence: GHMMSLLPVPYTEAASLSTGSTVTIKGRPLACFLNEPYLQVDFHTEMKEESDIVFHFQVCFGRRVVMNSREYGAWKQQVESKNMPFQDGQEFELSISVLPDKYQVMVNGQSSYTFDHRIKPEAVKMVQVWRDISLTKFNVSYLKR

[2] = target: T1, TEV-cleaved wild-type recombinant human …; experiment: cell-based or functional assay; remark: listed apart in the source
[3] = target: T2, human galectin-10-His (recombinant human galectin-10 with TEV-cleavable N-terminal His-tag) (human); experiment: BLI tandem on galectin-10-His; isotype control as saturating antibody (10 ug/mL)
T2 construct: SEC-MALLS: dimer in solution; also called Gal10-His; humanGal10-His
T2 chain: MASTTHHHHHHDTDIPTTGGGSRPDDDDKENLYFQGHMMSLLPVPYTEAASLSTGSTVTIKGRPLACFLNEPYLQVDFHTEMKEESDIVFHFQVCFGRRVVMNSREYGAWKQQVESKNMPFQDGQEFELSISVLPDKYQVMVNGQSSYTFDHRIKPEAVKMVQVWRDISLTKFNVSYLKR
Method in brief: (§1)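 Anti-His tips load galectin-10-His → excess saturating mAb → direct transfer to competitor mAb (suboptimal conc.). Read-out: BLI nm shift; no signal = same epitope.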

[4] = target: T2, human galectin-10-His (recombinant …); experiment: BLI tandem on galectin-10-His; competitor: saturating 6A08 mIgG1 (10 ug/mL)
Method in brief: as §1

[5] = target: T2, human galectin-10-His (recombinant …); experiment: Biacore capture approach (summary table), mouse IgG1
Procedure: The binding capacity of the mouse IgG1 antibodies to galectin-10 was analyzed on Biacore T3000. For this purpose, a capture approach was set up. A CM5 Chip was coated with polyclonal anti-mouse Fc at 8000 RU, then a fixed concentration of the mouse IgG1 antibody panel (1.5 μg/mL), diluted in HBS-EP pH7.4, was captured to reach a binding signal around 150 RU. Finally, a serial dilution of galectin-10-His (serial dilution, 1 over 2 from 5 μg/mL) diluted in HBS-EP pH7.4 was injected. Raw data were analyzed via BIA evaluation software with a blank subtraction (4-3). The kd/KD and Rmax of each mAb to galectin-10-His was determined using the Fit Kinetics simultaneous ka/kd/Binding with mass transfer/Local Rmax on BIA evaluation software.

[6] = target: T2, human galectin-10-His (recombinant …); experiment: SPR Biacore T3000, mouse IgG1 captured by anti-mouse Fc, galectin-10-His as analyte
Method in brief: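 Polyclonal anti-mouse Fc on a CM5 chip (8000 RU) captured each mouse IgG1 (1.5 μg/mL) to around 150 RU. Galectin-10-His was then injected as a 1:2 serial dilution from 5 μg/mL in HBS-EP pH7.4. After blank subtraction, kd/KD and Rmax came from a simultaneous ka/kd fit with mass transfer and local Rmax.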

[7] = target: T2, human galectin-10-His (recombinant …); experiment: ELISA, mouse IgG1 on coated galectin-10-His (0.2 ug/mL)
Method in brief: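 Serial dilutions of each antibody (from 100 nM, 1/4 steps, 12 points) were incubated on plates coated overnight with the antigen. Bound IgG1 detected with anti-mouse Fc-HRP, absorbance at 450 nm (reference 620 nm). EC50 from four-parameter variable-slope non-linear regression of OD values.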

[8] = target: T2, human galectin-10-His (recombinant …); experiment: BLI tandem on galectin-10-His; competitor: saturating 2C07 mIgG1 (10 ug/mL)
Method in brief: as §1

[9] = target: T3, cynomolgus galectin-10-His, WGS isoform (cynomolgus); experiment: ELISA, mouse IgG1 on coated cynoGal10-His_WGS (0.5 ug/mL)
T3 construct: not shown: His tag
T3 chain: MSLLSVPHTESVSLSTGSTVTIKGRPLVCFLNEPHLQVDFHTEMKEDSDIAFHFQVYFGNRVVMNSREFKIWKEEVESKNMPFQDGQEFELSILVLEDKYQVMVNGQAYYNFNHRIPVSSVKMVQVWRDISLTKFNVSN
Procedure: (§2) In a similar setup to that used during the characterization of the scFv-human Fc molecules, the relative binding properties of the 7 mouse IgG1 antibodies were analyzed by ELISA. A Maxisorp plate was coated overnight with 0.5 μg/mL of human or cynomolgus WGS or YRT isoform of galectin-10-His. Then a serial dilution of each clone (from 100 nM, dilution 1/4, 12 points of dilutions) was incubated on coated galectin-10. After several washing steps, detection of the bound mouse IgG1 was carried out with an anti-mouse Fc-HRP antibody (DAMPO, Jackson ImmunoResearch, Catalog 715-035-150). Absorbance was measured at 450 nm (reference at 620 nm) with Tecan instrument. The raw data (OD values) were plotted on GraphPad Prism 7.01. The EC50 values for each antibody, calculated with a non-linear regression (log(agonist) vs. response Variable slope (four parameters)), are shown in the table below. Antibody 1D11 from the previous panel was included for comparison.

[10] = target: T4, cynomolgus galectin-10-His, YRT isoform (cynomolgus); experiment: ELISA, mouse IgG1 on coated cynoGal10-His_YRT (0.5 ug/mL)
T4 construct: not shown: His tag
T4 chain: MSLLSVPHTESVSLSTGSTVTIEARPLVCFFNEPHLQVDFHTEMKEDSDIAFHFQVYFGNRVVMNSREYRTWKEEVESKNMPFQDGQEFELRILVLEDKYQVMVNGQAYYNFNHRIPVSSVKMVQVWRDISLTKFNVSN
Procedure: as §2

100% Solubilization of CLC (Conc uM) [1]: 7.86 µM | dissolution of in vitro grown Gal10 crystals (spinning disk confocal microscopy) [2]: ≤ 90 min | binding signal (nm) [3]: 1.18 nm | binding signal (nm) [4]: 0.01 nm | Kd [5]: 1 nM | koff [5]: 0.00529 s⁻¹ | Kd [6]: 1 nM | koff [6]: 0.00529 s⁻¹ | Bmax [7]: 1.5 OD | EC50 [7]: 0.1 nM | binding signal (nm) [8]: 0.02 nm | binding result [9]: no binding | binding result [10]: no binding
B1: 1D11 mouse IgG1 (antibody, V domains shown)
VH: QVQLVESGGGLVQPGGSLRLSCAASGFTFDDYAMSWVRQAPGKGLEWVSGISWNGGSTYYAESMKGRFTISRDNAKNTLYLQMNSLKSEDTAVYYCAKDRNLGYRLGYPYDYWGQGTQVTVSS
VL: QSVLTQPPSVSGSPGETVTISCAGTSSDVGYGNYVSWYQQLPGMAPRLLIYEVNKRASGITDRFSGSKSGNTASLTISGLQSEDEGDYYCASYRSSNNAVFGGGTHLTVL
notes: VH on mouse IgG1 heavy chain constant domains (CH1-CH2-CH3), VL on mouse lambda light chain constant domain; also called 1D011; 1D11 mIgG1
